6 molecules from patent US20230303689A1 (published 2023) can be followed below.

Assay [1] has as its target P3Z chimeric PD-1 receptor on HuT78/P3Z cells (human). Kind of assay: cell-based or functional assay.
For assay [2], the target named is T1, human PD-1 expressed on cells (HuT78/PD-1, NK92MI/PD-1) (human, UniProt Q15116 25-288). Kind of assay: cell-based or functional assay.
The next assay has as its target T2, PD-1-EC/Fc (human).
T2 construct: also called PD-1/Fc
The assay is described as follows: SPR (BIAcore T-200), mAb captured on anti-mouse Fc chip, PD-1/Fc injected. On the technique in general: Surface plasmon resonance follows binding to a sensor surface in real time, without labels.

For assay [3], the target named is T1, human PD-1 expressed on cells …. Kind of assay: FACS on PD-1-expressing cells.
Assay [4] shares this target. The assay is described as follows: cell-based or functional assay. The source holds these as a separate data set.

Where two headings read alike, the source gives them in different places.

Usually Kd stands for the equilibrium constant for the complex coming apart. Low values mean a tighter complex, high ones a looser complex. As usually defined, the koff is the rate constant with which the complex falls apart. Higher therefore signals a short-lived complex. As a reminder, the kon is the second-order rate constant of association. The low end stands for slower complex formation, the high end for faster complex formation. What is called EC50 is the midpoint of the concentration-response curve.

T2 sequence (Q15116 21-168): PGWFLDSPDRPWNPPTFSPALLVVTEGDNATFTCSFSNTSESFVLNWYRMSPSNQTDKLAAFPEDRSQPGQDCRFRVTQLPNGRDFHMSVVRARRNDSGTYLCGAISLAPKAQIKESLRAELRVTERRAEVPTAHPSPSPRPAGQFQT
T1 sequence (Q15116 25-288): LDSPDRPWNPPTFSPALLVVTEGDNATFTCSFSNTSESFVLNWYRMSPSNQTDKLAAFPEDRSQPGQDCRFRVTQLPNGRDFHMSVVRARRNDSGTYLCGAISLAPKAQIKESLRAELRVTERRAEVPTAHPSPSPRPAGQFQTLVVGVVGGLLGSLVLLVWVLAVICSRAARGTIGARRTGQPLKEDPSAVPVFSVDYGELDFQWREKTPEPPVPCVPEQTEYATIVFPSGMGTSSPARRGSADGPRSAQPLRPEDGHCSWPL
Chain of P3Z chimeric PD-1 receptor on HuT78/P3Z cells (human) (chain, as listed by the source mutant limits assumed): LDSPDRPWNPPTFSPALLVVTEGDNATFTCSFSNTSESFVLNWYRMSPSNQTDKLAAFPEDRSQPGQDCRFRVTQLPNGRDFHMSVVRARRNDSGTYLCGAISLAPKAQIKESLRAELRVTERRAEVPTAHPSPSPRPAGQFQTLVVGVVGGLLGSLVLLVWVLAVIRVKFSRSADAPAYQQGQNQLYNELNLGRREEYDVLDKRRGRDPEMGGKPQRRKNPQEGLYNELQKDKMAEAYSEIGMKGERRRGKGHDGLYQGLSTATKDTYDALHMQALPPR
Description for PD-1-EC/Fc: Anti-mouse Fc CM5 biosensor chip (GE Healthcare) was generated using a standard primary amine coupling protocol. PD-1 mAbs at 0.3 µg/ml were captured on anti-mouse Fc surface for 1 min at 10 µl/min. […] Association rates (Kₐ or kₒₙ) and dissociation rates (Kd or koff) were calculated using the one-to-one Langmuir binding model (BIA Evaluation Software, GE Life Sciences). The equilibrium dissociation constant (KD) was calculated as the ratio koff/kₒₙ.

B1: murine mAb 326 (antibody, V domains shown)
VH: QIQLVQSGPELKKPGETVKISCKASGYTFTNYGMNWVKQAPGKGLKWMGWINNNNGEPTYAEEFKGRFAFSLETSASTAYLQINNLKNEDTATYFCARDVMDYWGQGTSVTVSS
VL: DIVLTQSPASLAVSLGQRATISCRASESVDNYGYSFMHWYQQKPGQPPQLLIYRASNLESGIPARFSGSGSRTGFTLTINPVEADDVATYYCQQSKEYPTFGGGTKLEVK
notes: Murine hybridoma IgG; also called mu326
For B1, the “Inhibition of IL-2 secretion, HuT78/P3Z + HEK293/PD-L1: IC50” value in assay [1] is 0.039 µg/mL. The “Assay-1, IL-2 release HuT78/PD-1 + HEK293/OS8/PD-L1: Baseline” value in assay [2] was determined as 242 pg/mL. Also, in the assay with PD-1-EC/Fc, binding was characterised by a dissociation constant (Kd) of 0.324 nM, the koff is 7.79e-05 s⁻¹ and the kon amounted to 240000 M⁻¹ s⁻¹.

B2: ch326 (chimeric antibody from mu326, human IgG2/kappa) (antibody, V domains shown)
VH: QIQLVQSGPELKKPGETVKISCKASGYTFTNYGMNWVKQAPGKGLKWMGWINNNNGEPTYAEEFKGRFAFSLETSASTAYLQINNLKNEDTATYFCARDVMDYWGQGTSVTVSS
VL: DIVLTQSPASLAVSLGQRATISCRASESVDNYGYSFMHWYQQKPGQPPQLLIYRASNLESGIPARFSGSGSRTGFTLTINPVEADDVATYYCQQSKEYPTFGGGTKLEVKR
notes: domain: human Ig kappa C-region; not shown: human IgG2 constant region
For the molecule B2, the “Assay-1, IL-2 release HuT78/PD-1 + HEK293/OS8/PD-L1: Baseline” value in assay [2] worked out at 250 pg/mL. Also, in assay [3], a half-maximal effect (EC50) was put at 0.72 µg/mL.

B3: hu317-1 (humanized, human IgG2/kappa) (antibody, V domains shown, not shown: a dimerising Fc or GST)
VH: QVQLQESGPGLVKPSETLSLTCTVSGFSLTSYGVHWIRQPPGKGLEWLGVIWAGGSTNYNPSLKSRLTISKDNSKSQVSLKMSSVTAADTAVYYCARAYGNYWYIDVWGQGTTVTVSS
VL: DIVMTQSPDSLAVSLGERATINCKASQSVSNDVAWYQQKPGQPPKLLINYAFHRFTGVPDRFSGSGYGTDFTLTISSLQAEDVAVYYCHQAYSSPYTFGGGTKLEIKR
As for B3, in assay [4], the “Assay-1, IL-2 release HuT78/PD-1 + HEK293/OS8/PD-L1: Baseline” value is 91 pg/mL.

B4: hu326-1 (humanized, human IgG2/kappa) (antibody, V domains shown, not shown: a dimerising Fc or GST)
VH: QVQLVQSGSELKKPGASVKVSCKASGYTFTNYGMNWVRQAPGQGLEWMGWINNNNGEPTYAQGFRGRFVFSLDTSASTAYLQISSLKTEDTAVYFCARDVMDYWGQGTTVTVSS
VL: DIVLTQSPASLAVSPGQRATITCRASESVDNYGYSFMHWYQQKPGQPPKLLIYRASNLESGVPARFSGSGSRTDFTLTINPVEANDTANYYCQQSKEYPTFGGGTKVEIKR
Regarding B4, the “Assay-1, IL-2 release HuT78/PD-1 + HEK293/OS8/PD-L1: Baseline” value in assay [2] turned out to be 283 pg/mL.

B5: murine mAb 317 (antibody, V domains shown)
VH: QVQLKESGPGLVAPSKNLSITCTVSGFSLTSYGVHWIRQPPGKGLEWLGVIWAGGSTNYNSALMSRLSISKDNSRSQVFLRMNSLQTDDTAMYYCARAYGNYWYIDVWGAGTTVTVSS
VL: DIVMTQTPKFLLVSAGDRVTITCKASQSVSNDVAWYQQKPGQSPKLLINYAFHRFTGVPDRFTGSGYGTDFIFTISTVQAEDLAVYFCHQAYSSPYTFGGGTKLEMK
B5: the “Inhibition of IL-2 secretion, HuT78/P3Z + HEK293/PD-L1: IC50” value in assay [1] was found to be 0.083 µg/mL. Further, in assay [4], the “Assay-1, IL-2 release HuT78/PD-1 + HEK293/OS8/PD-L1: Baseline” value amounted to 98 pg/mL.

B6: ch317 (chimeric antibody from mu317, human IgG2/kappa) (antibody, V domains shown, not shown: a dimerising Fc or GST)
VH: QVQLKESGPGLVAPSKNLSITCTVSGFSLTSYGVHWIRQPPGKGLEWLGVIWAGGSTNYNSALMSRLSISKDNSRSQVFLRMNSLQTDDTAMYYCARAYGNYWYIDVWGAGTTVTVSS
VL: DIVMTQTPKFLLVSAGDRVTITCKASQSVSNDVAWYQQKPGQSPKLLINYAFHRFTGVPDRFTGSGYGTDFIFTISTVQAEDLAVYFCHQAYSSPYTFGGGTKLEMKR
Consider B6, for which, in assay [4], the “Assay-1, IL-2 release HuT78/PD-1 + HEK293/OS8/PD-L1: Baseline” value worked out at 82 pg/mL.
